Assay results: PMC7429351, “Comparison of ligand binding and conformational stability of human calmodulin with its homolog from the malaria parasite Plasmodium falciparum” (FASEB BioAdvances, 2020)
“And” between values parts separate entries of the source, which are not always exact repeats. Identical values can stand only once. Like-named read-outs stand apart in the source and are kept apart here.

Tests used:
[1] = molecular target: T1, human CaM (Homo sapiens, UniProt P0DP23); assay: ANS binding fluorescence, human CaM; conditions: 10 μmol/L ANS
T1 construct: properties of the whole protein can be explored with differential scanning calorimetry; made in house; host or cells: E coli

[2] = molecular target: T2, Pf CaM (Plasmodium falciparum, UniProt P62203); assay: ANS binding fluorescence, Pf CaM; conditions: 10 μmol/L ANS
T2 construct: properties of the whole protein can be explored with differential scanning calorimetry; made in house; host or cells: E coli
Method: (§1) Spectra were collected using a Jobin Yvon Fluoromax‐3 spectrofluorometer at 25°C in the standard assay buffer containing either 1 mmol/L EGTA or 1 mmol/L CaCl2. Spectra were recorded three times, averaged, and corrected by subtracting the appropriate blank. Tyrosine fluorescence was excited at 274 nm, the emission was detected between 285 and 370 nm, and the intensities were recorded at 303 nm. In ANS binding assays, 10 μmol/L of ANS (8‐anilinonaphtalene‐1‐sulfonic acid, Fluka, 10417) was excited at 388 nm in the presence of 2 μmol/L CaM in standard assay buffer, and the emission was monitored from 410 to 600 nm. In experiments with dansyl‐labeled CaM, the fluorophore was excited at 340 nm, and the emission was monitored from 400 to 600 nm.

[3] = molecular target: T2, Pf CaM; assay: Calcineurin activity assay, inhibition of Pf CaM function; format: biochemical; conditions: for inhibition of Pf CaM function in CaN activity assay: screen of selected Malaria Box compounds
Method: (§2) Calcineurin (PPase‐2B, CaN) was purchased from Promega (V6361, isolated from bovine brain). Dephosphorylation of the substrate p‐nitrophenyl phosphate (PNPP, Sigma, 1040) was followed by monitoring the increase in absorbance at 405 nm using a Perkin Elmer EnSpire microplate reader. The CaN activity was assayed by measuring the initial velocities at 28°C in 50 mmol/L Tris, pH 7.5 containing 0.001 unit/μL CaN, 0.1 mg/mL BSA, 20 mmol/L PNPP, 1 mmol/L NiCl2, and various amounts of CaM to determine dose‐response curves for CaN activation by CaM.

[4] = test system: 3D7 chloroquine sensitive but sulfadoxine resistant strain of P falciparum; design: method as in earlier work; conditions: blood stage, 3D7 strain; ref MMV website (https://www.mmv.org/mmv-open/malaria-box/malaria-box-supporting-information); cited from earlier work
[5] = molecular target: T1, human CaM; assay: Calcineurin activity assay, inhibition of human CaM function; format: biochemical
Method: as §2

[6] = molecular target: T3, human CaM (dansyl-labeled) (Homo sapiens, UniProt P0DP23); assay: Dansyl-CaM fluorescence titration, human CaM; format: binding; conditions: hyperbolic fit
T3 construct: properties of the whole protein can be explored with differential scanning calorimetry; made in house; host or cells: E coli
Method: as §1

[7] = molecular target: T4, dansyl-labeled Pf CaM (Plasmodium falciparum, UniProt P62203); assay: Dansyl-CaM fluorescence titration, Pf CaM; format: binding; conditions: hyperbolic fit
T4 construct: properties of the whole protein can be explored with differential scanning calorimetry; made in house; host or cells: E coli
Method: as §1

[8] = molecular target: T2, Pf CaM; assay: biochemical; format: binding; conditions: ITC
Excerpt: (§3) Titration curves were fitted with the models provided by the built‐in Origin software (MicroCal.).

[9] = molecular target: T1, human CaM; assay: Isothermal titration calorimetry, ligand titrated with human CaCaM; format: binding; conditions: ITC, 25°C, 1 mmol/L CaCl2, one set of sites model
Excerpt: as §3

[10] = Differential scanning calorimetry thermal denaturation; format: physicochemical; conditions: DSC; for T m1 / ΔH1 / ΔHv1: first transition; for T m1 / T m2: 1°C/min; for ΔH1 / ΔH2: calorimetric enthalpy; for ΔHv1 / ΔHv2: van't Hoff enthalpy; for T m2 / ΔH2 / ΔHv2: second transition
Method: Thermograms were measured in the standard assay buffer complemented with 1 mmol/L EGTA or CaCl2 using a VP‐DSC microcalorimeter (MicroCal). Protein samples at 0.75 mg/mL were heated at a scan rate of 1°C/min with no feedback. Data analysis was performed with the Origin software provided by MicroCal.

[11] = test system: bovine PDE; assay: PDE activation by CaM; format: biochemical; conditions: 150 nmol/L CaM, 1 mmol/L CaCl2
[12] = molecular target: T5, bovine brain CaN (Bos taurus, UniProt P48452); assay: Calcineurin activation by CaM; format: biochemical; conditions: PNPP substrate, 28°C
T5 construct: purchased Promega V6361; host or cells: bovine brain
T5 sequence (P63099 2-170 partner limits assumed, other chains not shown): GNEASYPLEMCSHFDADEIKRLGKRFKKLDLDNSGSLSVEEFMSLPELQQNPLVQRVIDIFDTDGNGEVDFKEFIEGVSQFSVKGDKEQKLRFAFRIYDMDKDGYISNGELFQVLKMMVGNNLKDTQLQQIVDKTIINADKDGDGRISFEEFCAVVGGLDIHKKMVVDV
Method: as §2

[13] = molecular target: T6, human MLCK (Homo sapiens, UniProt Q15746); assay: MLCK activation by CaM (ADP-Glow); format: biochemical; conditions: 30 minutes, room temperature
T6 construct: GST; purchased Sigma M9197
T6 sequence (Q15746 1425-1771 limits assumed): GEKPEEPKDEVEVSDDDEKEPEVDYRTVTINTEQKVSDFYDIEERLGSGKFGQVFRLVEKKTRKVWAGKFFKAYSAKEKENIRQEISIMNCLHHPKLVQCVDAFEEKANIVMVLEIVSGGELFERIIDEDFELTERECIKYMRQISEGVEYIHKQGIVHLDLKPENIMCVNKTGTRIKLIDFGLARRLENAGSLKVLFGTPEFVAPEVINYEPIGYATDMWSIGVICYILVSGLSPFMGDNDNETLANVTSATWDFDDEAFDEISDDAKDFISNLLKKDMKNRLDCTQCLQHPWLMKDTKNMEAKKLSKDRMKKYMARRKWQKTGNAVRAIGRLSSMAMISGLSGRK
Method: Myosin light chain kinase (MLCK) was purchased from Sigma (M9197, human, recombinant, GST‐tagged). Enzyme activity was measured in standard buffer complemented with 0.5 mmol/L CaCl2, 2.5 mmol/L MgCl2, and 0.1 mg/mL BSA. When measuring activation by CaM, 20 μL reaction mixtures contained 3.5 ng/μL MLCK, 0.1 mg/mL MLCK substrate (Sigma SCP0196), 50 μmol/L ATP, 0.5 mmol/L DTT, and various amounts of CaM. Samples were incubated for 30 minutes at room temperature then ADP formed during the kinase reaction was detected using the ADP‐Glow Kinase Assay kit (Promega) according to the manufacturer's instructions. Luminescence values proportional to ADP concentration were normalized to maximal intensities obtained at saturating CaM concentrations.

[14] = Differential scanning fluorimetry (nanoDSF, intrinsic fluorescence); format: physicochemical; conditions: DSF, 5°C/min, C-domain Tyr fluorescence
Method: Denaturation curves were determined by detecting intrinsic protein fluorescence as a function of temperature using the Prometheus instrument (NanoTemper Technologies). Protein samples at 1.0‐1.5 mg/mL were heated at a scan rate of 5°C/min up to 110°C in the standard assay buffer using the designated set and capillaries. Data analysis was performed with the built‐in analysis software.

[15] = CD melting curves at 222 nm; format: physicochemical; conditions: CD 222 nm
Method: CD spectra were recorded on Jasco J‐720 and J‐810 spectropolarimeters (Jasco) using quartz cuvettes with pathlengths of 1 mm in the far‐UV and 1 cm in the near‐UV range. Samples were measured in the standard assay buffer complemented with 1 mmol/L EGTA or CaCl2 at a protein concentration of 5‐8 μmol/L in the far‐UV and 210 μmol/L in the near‐UV. Spectra were recorded at least three times at a scan speed of 20 nm/min using a bandwidth and response time of 1 nm and 4 seconds, respectively. Secondary structure content was estimated using the BeStSel method available at http://bestsel.elte.hu. ^24 Melting curves were measured in standard assay buffer or 25 mmol/L phosphate, pH 7.0, in the presence of 1 mmol/L EGTA or saturating levels of CaCl2 monitoring the ellipticity at 222 nm for secondary structure changes or at 280 nm to monitor the signal of Tyr residues. A heating rate of 1 or 2°C/min was used. In a well‐sealed 1 mm‐cell, heating up to 110°C was possible.

Molecule: O=S(=O)(O)c1cccc2cccc(Nc3ccccc3)c12 [ANS, 8‐anilinonaphthalene‐1‐sulfonic acid]
- ANS binding (fluorescence) ([1]; 2 μmol/L CaCaM): remarkable ANS binding
- ANS binding (fluorescence) ([1]; 2 μmol/L apoprotein): no ANS binding
- ANS binding (fluorescence) ([2]; 2 μmol/L CaCaM, compared with human CaCaM): approximately twofold higher fluorescence intensity
- ANS binding (fluorescence) ([2]; 2 μmol/L apoprotein): no ANS binding

Molecule: O=C(NCC(c1ccsc1)N1CCCCCC1)c1ccc(C(F)(F)F)cc1 (stereo not shown) [MMV396672]
- inhibition of Pf CaM function in CaN activity assay [3]: showed inhibitory effect

Molecule: OC(CNCC1CCCO1)Cn1c2ccc(Cl)cc2c2cc(Cl)ccc21 (stereo not shown) [MMV396736]
- IC50 [3]: 6200 ± 1500 nM
- inhibition of Pf CaM function in CaN activity assay [3]: showed inhibitory effect
- EC50 [4]: 1060 nM
- IC50 [5]: 1600 ± 760 nM
- Kd [6]: 1800 ± 400 nM
- Kd [7]: 2400 ± 400 nM
- Kd ([8]; 25°C, 1 mmol/L CaCl2, one set of sites model, read-out: K d): 2500 ± 200 nM
- stoichiometry n ([8]; one set of sites model): ~ 8 and 7.4 ± 0.1
- Kd [9]: 2500 ± 500 nM

Molecule: Cl.N=c1n(CCN2CCCCC2)c2ccccc2n1CC(O)c1cccc(Br)c1 (stereo not shown) [MMV665902]
- inhibition of Pf CaM function in CaN activity assay [3]: showed inhibitory effect

Molecule: O=C(Nc1ccc(F)c(Cl)c1)Nc1ccc(Cl)c(Cl)c1 [MMV665953]
- inhibition of Pf CaM function in CaN activity assay [3]: showed inhibitory effect

Molecule: CC[C@H](C)[C@H](NC(=O)CN)C(=O)NCC(=O)N[C@@H](C)C(=O)N[C@H](C(=O)N[C@@H](CC(C)C)C(=O)N[C@@H](CCCCN)C(=O)N[C@H](C(=O)N[C@@H](CC(C)C)C(=O)N[C@H](C(=O)N[C@H](C(=O)NCC(=O)N[C@@H](CC(C)C)C(=O)N1CCC[C@H]1C(=O)N[C@@H](C)C(=O)N[C@@H](CC(C)C)C(=O)N[C@H](C(=O)N[C@@H](CO)C(=O)N[C@@H](Cc1c[nH]c2ccccc12)C(=O)N[C@H](C(=O)N[C@@H](CCCCN)C(=O)N[C@@H](CCCNC(=N)N)C(=O)N[C@@H](CCCCN)C(=O)N[C@@H](CCCNC(=N)N)C(=O)N[C@@H](CCC(N)=O)C(=O)N[C@@H](CCC(N)=O)C(N)=O)[C@@H](C)CC)[C@@H](C)CC)[C@@H](C)O)[C@@H](C)O)C(C)C)C(C)C [melittin]
- Kd ([8]; K d, one set of sites model, upper limit): < 30 nM

Molecule: Pf CaCaM: Plasmodium falciparum calmodulin, Ca2+‐saturated form
- T m1 [10]: 92.6 ± 0.1 °C
- ΔH1 [10]: 47.8 ± 0.3 kcal/mol
- ΔHv1 [10]: 44.5 ± 0.3 kcal/mol
- T m2 [10]: 125.9 ± 0.2 °C
- ΔH2 [10]: 97.9 ± 2.2 kcal/mol
- ΔHv2 [10]: 65.7 ± 0.8 kcal/mol

Molecule: Pf CaM: Recombinant Plasmodium falciparum calmodulin (Uniprot P62203) expressed in E coli
- increase of PDE activity [11]: the same activation effect
- EC50 [12]: 1 nM
- activation by CaM (elevation of the basal activity) [12]: 2.1 fold
- EC50 [13]: ~15 nM
- T m [14]: ~ 51 °C

Molecule: Pf apoCaM: Plasmodium falciparum calmodulin, Ca2+-free apo form
- T m1 [10]: 54.7 ± 0.2 °C
- ΔH1 [10]: 41.2 ± 1.2 kcal/mol
- ΔHv1 [10]: 48.1 ± 0.4 kcal/mol
- T m2 [10]: 64.3 ± 0.1 °C
- ΔH2 [10]: 33.4 ± 1.2 kcal/mol
- ΔHv2 [10]: 53.5 ± 0.6 kcal/mol
- T m ([15]; in phosphate buffer of low ionic strength): 51.2 ± 0.1 °C
- T m ([15]; standard assay buffer): 54.4 ± 0.2 °C
- T m [14]: 51.2 ± 0.6 °C
